Assay results published in paper PMC7758880 (Molecular Cell, 2020).

T1: Smc6 with a triple StrepII tag (S. cerevisiae, UniProt Q12749 1-1114)
T1 sequence: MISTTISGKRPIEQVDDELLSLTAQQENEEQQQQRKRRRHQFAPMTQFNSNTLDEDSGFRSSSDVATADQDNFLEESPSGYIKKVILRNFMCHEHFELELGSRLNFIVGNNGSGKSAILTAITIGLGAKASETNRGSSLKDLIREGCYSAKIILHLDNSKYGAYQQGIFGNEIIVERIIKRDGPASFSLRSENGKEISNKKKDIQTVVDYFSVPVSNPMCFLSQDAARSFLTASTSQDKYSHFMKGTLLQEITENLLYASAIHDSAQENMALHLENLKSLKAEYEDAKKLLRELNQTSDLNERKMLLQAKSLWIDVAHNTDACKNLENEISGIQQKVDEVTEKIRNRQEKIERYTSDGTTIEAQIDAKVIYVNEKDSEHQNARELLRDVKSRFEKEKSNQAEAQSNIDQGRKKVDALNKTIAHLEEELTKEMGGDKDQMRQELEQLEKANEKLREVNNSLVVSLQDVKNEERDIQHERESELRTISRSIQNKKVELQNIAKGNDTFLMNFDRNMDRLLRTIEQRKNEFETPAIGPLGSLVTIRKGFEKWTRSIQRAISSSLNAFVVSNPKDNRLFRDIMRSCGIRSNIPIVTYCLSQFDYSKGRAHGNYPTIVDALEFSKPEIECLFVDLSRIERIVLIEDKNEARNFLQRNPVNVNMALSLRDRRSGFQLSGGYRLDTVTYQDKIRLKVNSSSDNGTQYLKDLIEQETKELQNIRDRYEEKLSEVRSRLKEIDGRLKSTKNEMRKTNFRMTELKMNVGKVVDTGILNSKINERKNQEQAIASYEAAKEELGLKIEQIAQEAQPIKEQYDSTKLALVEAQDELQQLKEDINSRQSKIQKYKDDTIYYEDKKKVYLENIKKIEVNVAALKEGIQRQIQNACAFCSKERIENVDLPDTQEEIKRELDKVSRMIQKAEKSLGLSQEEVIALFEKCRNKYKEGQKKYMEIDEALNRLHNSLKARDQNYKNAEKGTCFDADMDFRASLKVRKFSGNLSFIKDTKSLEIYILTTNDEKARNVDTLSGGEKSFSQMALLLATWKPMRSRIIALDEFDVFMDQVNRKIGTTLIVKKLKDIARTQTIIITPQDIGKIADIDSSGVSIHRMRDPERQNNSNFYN

B1: Smc5 (natural protein)
chain: MTSLIDLGRYVERTHHGEDTEPRSKRVKIAKPDLSSFQPGSIIKIRLQDFVTYTLTEFNLSPSLNMIIGPNGSGKSTFVCAVCLGLAGKPEYIGRSKKVEDFIKNGQDVSKIEITLKNSPNVTDIEYIDARDETIKITRIITRSKRRSDYLINDYQVSESVVKTLVAQLNIQLDNLCQFLSQERVEEFARLKSVKLLVETIRSIDASLLDVLDELRELQGNEQSLQKDLDFKKAKIVHLRQESDKLRKSVESLRDFQNKKGEIELHSQLLPYVKVKDHKEKLNIYKEEYERAKANLRAILKDKKPFANTKKTLENQVEELTEKCSLKTDEFLKAKEKINEIFEKLNTIRDEVIKKKNQNEYYRGRTKKLQATIISTKEDFLRSQEILAQTHLPEKSVFEDIDIKRKEIINKEGEIRDLISEIDAKANAINHEMRSIQRQAESKTKSLTTTDKIGILNQDQDLKEVRDAVLMVREHPEMKDKILEPPIMTVSAINAQFAAYLAQCVDYNTSKALTVVDSDSYKLFANPILDKFKVNLRELSSADTTPPVPAETVRDLGFEGYLSDFITGDKRVMKMLCQTSKIHTIPVSRRELTPAQIKKLITPRPNGKILFKRIIHGNRLVDIKQSAYGSKQVFPTDVSIKQTNFYQGSIMSNEQKIRIENEIINLKNEYNDRKSTLDALSNQKSGYRHELSELASKNDDINREAHQLNEIRKKYTMRKSTIETLREKLDQLKREARKDVSQKIKDIDDQIQQLLLKQRHLLSKMASSMKSLKNCQKELISTQILQFEAQNMDVSMNDVIGFFNEREADLKSQYEDKKKFVKEMRDTPEFQSWMREIRSYDQDTKEKLNKVAEKYEEEGNFNLSFVQDVLDKLESEIAMVNHDESAVTILDQVTAELRELEHTVPQQSKDLETIKAKLKEDHAVLEPKLDDIVSKISARFARLFNNVGSAGAVRLEKPKDYAEWKIEIMVKFRDNAPLKKLDSHTQSGGERAVSTVLYMIALQEFTSAPFRVVDEINQGMDSRNERIVHKAMVENACAENTSQYFLITPKLLTGLHYHEKMRIHCVMAGSWIPNPSEDPKMIHFGETSNYSFD
B2: Nse4 with 8xHis and 3xHA tags (natural protein)
chain: MSSTVISRKRRNSTVTEPDSSGETRKQKKSRSDEKSSSSKDGDPQLEFKVLQGYRDLESEMHKGRAQVTRTGDIGVAMDNLNAVDSLFNKVIGIKNNGLFAHDARAMVSISELAQISVRNLKFDDSRSMVNLENIVNSLKRYMLKEHFKLNNIAENRNDLTLAADEQSAADQQEESDGDIDRTPDDNHTDKATSSFKATSMRHSYLQQFSHYNEFSQFNWFRIGALYNTISKNAPITDHLMGPLSIEKKPRVLTQRRRNNDQVGEKITAEKITQHSLNSTQQETTPEQVKKCFKKLSKKLGPEGSINLFKFIIDPNSFSRSIENLFYTSFLIKEGKLLMEHDEEGLPTIKIKQSISHTDSRSKEIERQRRRAAHQNHIIFQMDMPTWRKLIKKYNITSPFLD

Assays:
Smc5 = target: B1; test: cross-linking
[1] = target: T1, Smc6 with a triple StrepII tag; test: cross-linking
[2] = target: B2; test: cross-linking
[3] = target: T1, Smc6 with a triple StrepII tag; test: affinity purification with mass spectrometry

| binding result (Smc5) | binding result [1] | binding result [2] | binding result [3] | Binder |
| --- | --- | --- | --- | --- |
| binds | binds | – | – | Nse1 (natural protein) MEVHEEQVSAPVTGDATAKYLLQYILSARGICHENALILALMRLETDASTLNTEWSIQQWVDKLNDYINAINVKLNLLGYKIIRINHGIGRNAVTLKAKQNFESFEDNTAIRAHNNDYAVLQSIVLPESNRFFVYVNLASTEETKLATRFNQNEIEFMKWAIEQFMISGETIVEGPALETSIIVKEVNRILVAATGDSNLAKWRKFSTFTVGSTNLFQFQELTATDIEDLLLRLCELKWFYRTQEGKFGIDLRCIAELEEYLTSMYNLNTCQNCHKLAIQGVRCGNESCREENEETGENSLSQIWHVDCFKHYITHVSKNCDRCGSSLITEGVYVI |
| binds | binds | – | – | Nse5 (natural protein) MDGALINSVLYVSPRNGAHYFVELTEKHLLAFEMLNSMCLLENYDHVLLFLECQFGKSHNLAVIPFDIILVLFTLSTLSEYYKEPILRANDPYNTSRETLSRRALKLLQKYLAILKEFDSEQYNLYDLELLRCQFFLAIDTLTPKKQKWGFDRFRRTKSESGVTYRQNASVDPELDQAKTFKNPYRSYISCLEQRNTILGNRLLNLKLNEPGEFINMILWTLSNSLQESTPLFLSSHEIWMPLLEILIDLFSCRQDYFIQHEVAQNVSKSLFVQRLSESPLAVFFESLNTRNFANRFSEYVFLNCDYKLPSDNYATPVHPVYNGENTIVDTYIPTIKCSPLYKSQKSLALRRKLIGSCFKLLLRVPDGHRLITPRIVADDVIQGISRTLASFNDILQFKKFFMTENLSQESYFIPLLAEGTLSEILKDTQECVVILTLVENLSDGVSFCNEVIGLVKSKCFAFTEQCSQASYEEAVLNIEKCDVCLLVLLRYLLHLIGTEAILDAKEQLEMLHAIEKNDSGRRQWAKALNLGNDPPLLYPIVSQMFGVHDKSVIIE |
| binds | binds | binds | – | Nse3 (natural protein) MSSIDNDSDVDLTEDLAVAKIVKENPVARKMVRYILSRGESQNSIITRNKLQSVIHEAAREENIAKPSFSKMFMDINAILYNVYGFELQGLPSKNNMNAGGNGSNSNTNKSMPEPLGHRAQKFILLNNVPHSKNFDDFKILQSAHTYEELIVTGEYIGDDIASGTSNTLESKLSTDRDLVYKGVLSVILCIVFFSKNNILHQELIKFLETFGIPSDGSKIAILNITIEDLIKSLEKREYIVRLEEKSDTDGEVISYRIGRRTQAELGLESLEKLVQEIMGLEKEQTKSLHDDIIKSIGDSYSI |
| binds | binds | – | – | Nse2 (enzyme) MALNDNPIPKSVPLHPKSGKYFHNLHARDLSNIYQQCYKQIDETINQLVDSTSPSTIGIEEQVADITSTYKLLSTYESESNSFDEHIKDLKKNFKQSSDACPQIDLSTWDKYRTGELTAPKLSELYLNMPTPEPATMVNNTDTLKILKVLPYIWNDPTCVIPDLQNPADEDDLQIEGGKIELTCPITCKPYEAPLISRKCNHVFDRDGIQNYLQGYTTRDCPQAACSQVVSMRDFVRDPIMELRCKIAKMKESQEQDKRSSQAIDVL |
| – | – | – | binds | B1 |
| binds | binds | – | – | B2 |
